Assay results as given in patent US20240076396A1 (Regeneron, published 2024).

T1: hGITR.mFc (dimeric recombinant human GITR ectodomain protein, mouse Fc fusion) (human)
T1 construct: also called dimeric human GITR; dimeric GITR
T1 chain: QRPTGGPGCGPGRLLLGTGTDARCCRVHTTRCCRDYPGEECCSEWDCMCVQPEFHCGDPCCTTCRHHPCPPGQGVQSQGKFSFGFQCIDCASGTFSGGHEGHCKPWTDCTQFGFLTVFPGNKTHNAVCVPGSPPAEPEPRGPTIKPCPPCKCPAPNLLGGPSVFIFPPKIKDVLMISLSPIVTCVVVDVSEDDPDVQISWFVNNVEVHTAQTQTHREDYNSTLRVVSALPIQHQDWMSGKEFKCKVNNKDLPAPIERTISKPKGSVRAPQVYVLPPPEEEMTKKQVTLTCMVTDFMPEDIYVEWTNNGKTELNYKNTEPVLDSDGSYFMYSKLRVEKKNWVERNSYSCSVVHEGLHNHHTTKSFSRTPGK

T2: hGITR.mmH (soluble monomeric recombinant human GITR ectodomain protein) (human)
T2 construct: also called monomeric human GITR
T2 chain: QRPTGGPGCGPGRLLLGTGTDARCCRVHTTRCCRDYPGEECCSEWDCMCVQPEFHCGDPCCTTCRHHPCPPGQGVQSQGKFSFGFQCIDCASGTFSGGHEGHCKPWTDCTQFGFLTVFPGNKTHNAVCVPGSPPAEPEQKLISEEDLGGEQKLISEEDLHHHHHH

B1: mAb2 (antibody, human IgG1, kappa, V domains shown)
VH: QVQLQESGPGLVKPSETLSLTCIVSGGSISGYFWNWIRQPPGKGLEWIGYIYYSGTTIYNPSLKSRFTISLDTSKNQFSLKLTSVTAADTAVYYCARESYEPSPRYFDHWGQGTLVTVSS
VL: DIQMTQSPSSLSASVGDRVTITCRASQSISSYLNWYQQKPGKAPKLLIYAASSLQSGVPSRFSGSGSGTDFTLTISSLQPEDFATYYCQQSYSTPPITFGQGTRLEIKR
notes: Human IgG1; N101E variant of CompAb1; also called N101E Variant; N101E
B2: CompAb1 (antibody, V domains shown)
VH: QVQLQESGPGLVKPSETLSLTCIVSGGSISGYFWNWIRQPPGKGLEWIGYIYYSGTTIYNPSLKSRFTISLDTSKNQFSLKLTSVTAADTAVYYCARESYNPSPRYFDHWGQGTLVTVSS
VL: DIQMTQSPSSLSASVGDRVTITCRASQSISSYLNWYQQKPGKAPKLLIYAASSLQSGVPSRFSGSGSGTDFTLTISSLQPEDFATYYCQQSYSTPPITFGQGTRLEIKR
notes: Human IgG1; also called WT; Sample Number 1
B3: CompAb1 heavy chain variant S103R (antibody, human IgG1, V domains shown)
VH: QVQLQESGPGLVKPSETLSLTCIVSGGSISGYFWNWIRQPPGKGLEWIGYIYYSGTTIYNPSLKSRFTISLDTSKNQFSLKLTSVTAADTAVYYCARESYNPRPRYFDHWGQGTLVTVSS
VL: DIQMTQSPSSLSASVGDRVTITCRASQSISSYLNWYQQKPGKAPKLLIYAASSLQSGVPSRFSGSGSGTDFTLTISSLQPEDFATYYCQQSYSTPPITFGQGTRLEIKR
notes: human IgG1 constant region; tested as CHOt supernatant; also called Sample Number 33
B4: CompAb1 heavy chain variant N101Y (antibody, human IgG1, V domains shown)
VH: QVQLQESGPGLVKPSETLSLTCIVSGGSISGYFWNWIRQPPGKGLEWIGYIYYSGTTIYNPSLKSRFTISLDTSKNQFSLKLTSVTAADTAVYYCARESYYPSPRYFDHWGQGTLVTVSS
VL: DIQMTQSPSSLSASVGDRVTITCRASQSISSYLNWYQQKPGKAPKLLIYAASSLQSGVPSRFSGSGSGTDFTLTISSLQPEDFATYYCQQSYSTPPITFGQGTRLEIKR
notes: human IgG1 constant region; tested as CHOt supernatant; also called Sample Number 19
B5: CompAb1 heavy chain variant N101P (antibody, human IgG1, V domains shown)
VH: QVQLQESGPGLVKPSETLSLTCIVSGGSISGYFWNWIRQPPGKGLEWIGYIYYSGTTIYNPSLKSRFTISLDTSKNQFSLKLTSVTAADTAVYYCARESYPPSPRYFDHWGQGTLVTVSS
VL: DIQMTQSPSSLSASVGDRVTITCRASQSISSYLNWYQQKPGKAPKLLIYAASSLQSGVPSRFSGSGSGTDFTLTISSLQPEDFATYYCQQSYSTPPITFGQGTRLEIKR
notes: human IgG1 constant region; tested as CHOt supernatant; also called Sample Number 12
B6: mAb4 (antibody, human IgG1, kappa, V domains shown)
VH: QVQLQESGPGLVKPSETLSLTCIVSGGSISGYFWNWIRQPPGKGLEWIGYIYYSGTTIYNPSLKSRFTISLDTSKNQFSLKLTSVTAADTAVYYCARESYTPSPRYFDHWGQGTLVTVSS
VL: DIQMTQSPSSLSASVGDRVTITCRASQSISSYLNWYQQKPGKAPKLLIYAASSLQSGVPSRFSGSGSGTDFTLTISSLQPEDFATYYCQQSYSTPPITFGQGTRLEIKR
notes: Human IgG1; N101T variant of CompAb1; also called N101T Variant; N101T
B7: CompAb1 heavy chain variant S103K (antibody, human IgG1, V domains shown)
VH: QVQLQESGPGLVKPSETLSLTCIVSGGSISGYFWNWIRQPPGKGLEWIGYIYYSGTTIYNPSLKSRFTISLDTSKNQFSLKLTSVTAADTAVYYCARESYNPKPRYFDHWGQGTLVTVSS
VL: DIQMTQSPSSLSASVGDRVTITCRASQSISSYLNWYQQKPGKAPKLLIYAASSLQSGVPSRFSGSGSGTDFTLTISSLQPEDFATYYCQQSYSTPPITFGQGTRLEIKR
notes: human IgG1 constant region; tested as CHOt supernatant; also called Sample Number 27
B8: CompAb1 heavy chain variant N101F (antibody, human IgG1, V domains shown)
VH: QVQLQESGPGLVKPSETLSLTCIVSGGSISGYFWNWIRQPPGKGLEWIGYIYYSGTTIYNPSLKSRFTISLDTSKNQFSLKLTSVTAADTAVYYCARESYFPSPRYFDHWGQGTLVTVSS
VL: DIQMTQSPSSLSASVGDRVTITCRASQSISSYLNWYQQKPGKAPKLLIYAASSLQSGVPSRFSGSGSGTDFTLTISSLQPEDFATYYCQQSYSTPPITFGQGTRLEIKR
notes: human IgG1 constant region; tested as CHOt supernatant; also called Sample Number 5
B9: CompAb1 heavy chain variant N101H (antibody, human IgG1, V domains shown)
VH: QVQLQESGPGLVKPSETLSLTCIVSGGSISGYFWNWIRQPPGKGLEWIGYIYYSGTTIYNPSLKSRFTISLDTSKNQFSLKLTSVTAADTAVYYCARESYHPSPRYFDHWGQGTLVTVSS
VL: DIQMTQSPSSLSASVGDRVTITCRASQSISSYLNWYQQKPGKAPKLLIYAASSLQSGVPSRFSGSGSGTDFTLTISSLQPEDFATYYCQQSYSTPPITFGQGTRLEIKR
notes: human IgG1 constant region; tested as CHOt supernatant; also called Sample Number 7
B10: mAb3 (antibody, human IgG1, kappa, V domains shown)
VH: QVQLQESGPGLVKPSETLSLTCIVSGGSISGYFWNWIRQPPGKGLEWIGYIYYSGTTIYNPSLKSRFTISLDTSKNQFSLKLTSVTAADTAVYYCARESYSPSPRYFDHWGQGTLVTVSS
VL: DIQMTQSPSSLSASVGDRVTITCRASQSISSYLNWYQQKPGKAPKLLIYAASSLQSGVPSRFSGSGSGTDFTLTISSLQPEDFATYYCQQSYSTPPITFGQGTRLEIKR
notes: Human IgG1; N101S variant of CompAb1; also called N101S Variant; N101S
B11: CompAb1 heavy chain variant N101A (antibody, human IgG1, V domains shown)
VH: QVQLQESGPGLVKPSETLSLTCIVSGGSISGYFWNWIRQPPGKGLEWIGYIYYSGTTIYNPSLKSRFTISLDTSKNQFSLKLTSVTAADTAVYYCARESYAPSPRYFDHWGQGTLVTVSS
VL: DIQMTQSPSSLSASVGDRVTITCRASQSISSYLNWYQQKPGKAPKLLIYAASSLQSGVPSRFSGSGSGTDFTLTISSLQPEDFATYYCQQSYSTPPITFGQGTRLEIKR
notes: human IgG1 constant region; tested as CHOt supernatant; also called Sample Number 2
B12: CompAb1 heavy chain variant N101L (antibody, human IgG1, V domains shown)
VH: QVQLQESGPGLVKPSETLSLTCIVSGGSISGYFWNWIRQPPGKGLEWIGYIYYSGTTIYNPSLKSRFTISLDTSKNQFSLKLTSVTAADTAVYYCARESYLPSPRYFDHWGQGTLVTVSS
VL: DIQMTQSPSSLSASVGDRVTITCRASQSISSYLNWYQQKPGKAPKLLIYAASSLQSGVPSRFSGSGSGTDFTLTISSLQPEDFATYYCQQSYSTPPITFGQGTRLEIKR
notes: human IgG1 constant region; tested as CHOt supernatant; also called Sample Number 10
B13: CompAb1 heavy chain variant N101W (antibody, human IgG1, V domains shown)
VH: QVQLQESGPGLVKPSETLSLTCIVSGGSISGYFWNWIRQPPGKGLEWIGYIYYSGTTIYNPSLKSRFTISLDTSKNQFSLKLTSVTAADTAVYYCARESYWPSPRYFDHWGQGTLVTVSS
VL: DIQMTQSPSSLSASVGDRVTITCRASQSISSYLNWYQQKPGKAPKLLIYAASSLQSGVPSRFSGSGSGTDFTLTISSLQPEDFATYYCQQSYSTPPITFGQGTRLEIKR
notes: human IgG1 constant region; tested as CHOt supernatant; also called Sample Number 18

Legend:
[1] = molecular target: T1, hGITR.mFc (dimeric recombinant human …); assay: SPR Biacore T-200; purified antibody captured on anti-human Fc; 5 nM hGITR.mFc
Procedure: (§1) For purified antibodies, Biacore experiments were performed as follows. Using a Biacore T-200 instrument, antibodies were captured for 30 seconds at a flow rate of 8 uL/min on a CM5 anti-humanFc-coupled surface. Approximately 120 RU of each antibody were captured. 10 nM hGITR.mmH (soluble monomeric hGITR, SEQ ID NO: 45) or 5 nM hGITR.mFc (dimeric Macaca fasicularis GITR, SEQ ID NO: 46) were injected over this surface for 5 minutes at a flow rate of 50 uL/min. Dissociation was measured for 10 min. The KD and t_{1/2} were calculated by fitting the double-referenced sensorgrams to a 1:1 binding model.

[2] = molecular target: T2, hGITR.mmH (soluble monomeric …); assay: SPR Biacore T-200; purified antibody captured on anti-human Fc; 10 nM hGITR.mmH
Procedure: as §1

[3] = molecular target: T1, hGITR.mFc (dimeric recombinant human …); assay: SPR Biacore 2000 25C; CHOt supernatant antibody captured on anti-human Fc; 50 nM hGITR.mFc
Procedure: (§2) Biacore experiments for antibodies secreted in conditioned culture medium were performed as follows. Using a Biacore 2000 instrument at 25° C., antibodies were captured for 80 seconds at a flow rate of 8 uL/min on a CM5 anti-humanFc-coupled surface. Approximately 1000-2000 RU of each antibody were captured. 100 nM hGITR.mmH (soluble monomeric hGITR, SEQ ID NO: 45) or 50 nM hGITR.mFc (dimeric Macaca fasicularis GITR, SEQ ID NO: 46) were injected over this surface for 2 minutes at a flow rate of 50 uL/min. Dissociation was measured for 2 minutes. The KD and t_{1/2} were calculated by fitting the double-referenced sensorgrams to a 1:1 binding model.

[4] = molecular target: T2, hGITR.mmH (soluble monomeric …); assay: SPR Biacore 2000 25C; CHOt supernatant antibody captured on anti-human Fc; 100 nM hGITR.mmH
Procedure: as §2

[5] = molecular target: T2, hGITR.mmH (soluble monomeric …); assay: SPR Biacore 2000 25C; CHOt supernatant antibody captured on anti-human Fc
Procedure: as §2

[6] = molecular target: T1, hGITR.mFc (dimeric recombinant human …); assay: as above
Procedure: as §2

Binder | Kd [1] [nM] | t1/2 [1] [min] | Kd [2] [nM] | t1/2 [2] [min] | Kd [3] [nM] | t1/2 [3] [min] | Kd [4] [nM] | t1/2 [4] [min] | binding result [5] | binding result [6]
B1 | 0.902 | 9.55 | 11.3 | 2.8 | 1.27 | 34.9 | 109 | 0.99 |  | 
B2 | 0.137 | 35.6 | 1.51 | 6.75 | 0.201 | 194 | 24.9 | 4.56 |  | 
B3 |  |  |  |  | 45.6 | 0.75 |  |  | no binding (tested: 100 nM hGITR.mmH) | 
B4 |  |  |  |  |  |  |  |  | no binding (tested: 100 nM hGITR.mmH) | no binding (tested: 50 nM hGITR.mFc)
B5 |  |  |  |  |  |  |  |  | no binding (tested: 100 nM hGITR.mmH) | no binding (tested: 50 nM hGITR.mFc)
B6 | 0.663 | 10 | 8 | 2.25 | 0.284 | 110 | 61.3 | 1.52 |  | 
B7 |  |  |  |  | 47.5 | 0.64 |  |  | no binding (tested: 100 nM hGITR.mmH) | 
B8 |  |  |  |  |  |  |  |  | no binding (tested: 100 nM hGITR.mmH) | no binding (tested: 50 nM hGITR.mFc)
B9 |  |  |  |  |  |  |  |  | no binding (tested: 100 nM hGITR.mmH) | no binding (tested: 50 nM hGITR.mFc)
B10 | 0.882 | 5.56 | 6.05 | 4.65 | 0.908 | 37.7 | 81.9 | 0.92 |  | 
B11 |  |  |  |  | 42.4 | 0.47 |  |  | no binding (tested: 100 nM hGITR.mmH) | 
B12 |  |  |  |  | 57.5 | 0.45 |  |  | no binding (tested: 100 nM hGITR.mmH) | 
B13 |  |  |  |  |  |  |  |  | no binding (tested: 100 nM hGITR.mmH) | no binding (tested: 50 nM hGITR.mFc)
